From patent publication US20220089784A1 (University of California, published 2022)

B1: ING2 scFv (scFv, V domains shown)
VH: QVQLVQSGAEVKKPGSSVKVSCKASGDTFNRNAIAWVRQAPGQGLEWMGRIIPNLRTTHYAQKFQGRVAITADKHTNTVFMELSSLRSEDTAVYYCARDPYYYSYMDVWGKGTTVTVSS
VL: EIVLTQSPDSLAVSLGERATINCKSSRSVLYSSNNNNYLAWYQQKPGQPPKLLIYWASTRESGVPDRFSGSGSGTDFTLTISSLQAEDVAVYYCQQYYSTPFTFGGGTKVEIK
B2: 1D9 scFv (scFv)
scFv: EVKLVESGGDLVKPGGSLKLSCAASGFTFSSYGMSWVRQTPDKRLEWVATISSGGSYTYYPDNVKGRFTISRDNAKNNLFLQMSHLKSEDTAMYYCARDWDYYYGSYWYFDVWGTGTSVTVSSVDLKSGGSTSGSGKPGSGEGSSGSARENVLTQSPAILSASPGEKVTMTCRASSSVSYMHWYQQKPGSSPRLLIYDTSNLASGVPVRFSGSGSGTSYSLTISRMEAEDAATYYCQQWSSYPYTFGGGTKLEIK
notes: mouse
B3: 1D2 scFv (scFv)
scFv: QVQLKESGAELMKPGASVKLSCKATGYTFTGYWIEWVKQRPGHGLEWIGEILPGSGSTNYNEKFKGKATFTADTSSNTAYMQLSSLTTEDSAIYYCASIYYGHDYWGQGTTLTVSSVDLKSGGSTSGSGKPGSGEGSSGSARDIVMTQSPKFMSTSVGDRVSVTCKASQNVGTNVAWYQQKPGQSPKALIYSASYRYSGVPDRFTGSGSGTDFTLTISNVQSEDLAEYFCQQYNSYPYTFGGGTKLEIK
notes: mouse
B4: 11D8 scFv (scFv)
scFv: EVQLQQSGAELVRPGTSVKLSCKASGYTFTSYWMHWVKQRPGQGLEWIGVIDPSDSYTNYNQKFKGKATLTVDTSSSTAYMQLSSLASEDSAVYYCARYPGNRAMDYWGQGTSVTVSSVDLKSGGSTSGSGKPGSGEGSSGSARDIVLTQSPASLAVSLGQRATISCRASESVDYDGDSYMNWYQQKPGQPPKLLIYAASNLESGIPARFSGSGSGTDFTLNIHPVEEEDAATYYCLQSNEAPWTFGGGTKLEIK
notes: mouse
B5: 10F9 scFv (scFv)
scFv: EVQLQQSGAELVKPGASVKLSCKASGYTFTSYWMHWIKQRPGQGLEWIGVIDPSDSYTNYNQKFKGKATLTVDTSSSTAYMQLSSLTSEDSAVYYCATGGNGFFDYWGQGTTLTVSSVDLKSGGSTSGSGKPGSGEGSSGSARDIVLTQSPASLAVSLGQRATISCRASESVDYDGDSYMNWYQQKPGQPPKLLIYAASNLESGIPARFSGSGSGTDFTLNIHPVEEEDAATYYCLQSNEAPWTFGGGTKLELK
notes: mouse
B6: 10H11 scFv (scFv)
scFv: QIQLLQSGAELVKPGASVKLSCTASGFNIKDYYMHWVKQRPEQGLEWIGRIDPEDGDTEYAPKFQGKATMTADTSSNTAYLQLSSLTSEDSAVYFCARLNYDYPYWYFDVWGTGTTLTVSSVDLKSGGSTSGSGKPGSGEGSSGSARQIVLTQSPAIMSASPGEKVTMTCSASSSVSYMYWYQQKPGSSPRLLIYDTSNLASGVPVRFSGSGSGTSYSLTISRMEAEDAATYYCQQWSSYPLTFGAGTRLELK
notes: mouse
B7: 1H5 scFv (scFv)
scFv: EVQLQQSGAELVRPGTSVKLSCKASDYTFTNYWTHWVKQRPGQGLEWIGVIDPSDSYTNYNQKFKGKATLTVDTSSSTAYMQLSSLTSEDSAVYYCARGYYDTMDYWGQGTTVTVSSVDLKSGGSTSGSGKPGSGEGSSGSARDIVLTQSPASLAVSLGQRATISCRASESVDYDGDSYMNWYQQKPGQPPKLLIYAASNLESGIPARFSGSGSGTDFTLNIHPVEEEDAATYYCLQSNEAPWTFGGGTKLEIK
notes: mouse
B8: 1D8 scFv (scFv)
scFv: EVQLQESGAELVRPGTSVKLSCKASGYTFTSYWMHWVKQRPGQGLEWIGVIDPSDSYTNYNQKFKGKATLTVDTSSSTAYMQLSSLTSEDSAVYYCARGSSGYVNYWGQGTTLTVSSVDLKSGGSTSGSGKPGSGEGSSGSARDIVMSQSPASLAVSLGQRATISCRASESVDYDGDSYMNWYQQKPGQPPKLLIYAASNLESGIPARFSGSGSGTDFTLNIHPVEEEDAATYYCLQSNEAPWTFGGGTKLEIK
notes: mouse
B9: 10B12 scFv (scFv)
scFv: EVQLQQSGAELVRPGTSVKLSCKSSGYTFTSDWMHWVIQRPGQGLEWIGVIDPSDSYTNYNQKFKGKATLTVDTSSSTAYMHLSSLTSEDSAVYYCARREGHYYGKAMDYWGQGTSVTVSSVDLKSGGSTSGSGKPGSGEGSSGSARDIVMSQSPASLAVSLGQRATISCRASESVDYDGDSYMNWYQQKPGQPPKLLIYAASNLESGIPARFSGSGSGTDFTLNIHPVEEEDAATYYCLQSNEAPWTFGGGTKLEIK
notes: mouse
B10: 12A11 scFv (scFv)
scFv: DVQLQESGPGLVKPSQSLSLTCSVTGYSITGGYYWNWIRQFPGNKLEWMGYISYDGSNNYNPSLKNRISITRDTSKNQFFLKLNSVTTEDTATYYCARNMGLWYFDVWGTGTPVTVSAVDLKSGGSTSGSGKPGSGEGSSGSARQIVLTQSPANLSASPGEKVTMTCSASSSVSYMHWYQQKPGSSPKPWIYATSNLASGVPARFSGSGSGTSYSLTISRMEAEDAATYYCQQWSSYPPMYTFGGGTKLELK
notes: mouse
B11: 1C10 scFv (scFv)
scFv: QIQLLQPGTELVRPGTSVKLSCKASGYTFTNYWMHWVKQRPGQGLEWIGVIDPSDSYTNYNQKFKGKATLTVDTSSSTAYMQLSSLTFEDSAVYYCARYSGPYAMDYWGQGTTLTVSAVDLKSGGSTSGSGKPGSGEGSSGSAREIVLTQSPASLAVSLGQRATISCRACESVDYDGDSYMNWYQQKPGQPPKLLIYAASNLESGIPARFSGSGSGTDFTLNIHPVEEEDAATYYCLQSNEAPWTFGGGTKLEIK
notes: mouse
B12: 9B2 scFv (scFv)
scFv: QVQLQQSGAELVRPGASVKLSCTASGFNIEDDYMHWVKQRPEQGLEWIGRIDPANGNTEYAPKFQDKATITADTSSNTAYLQLSRLTSEDTAVYYCARGGWLGNYYAMDYWGQGTSVTVSSVDLKSGGSTSGSGKPGSGEGSSGSARDIVMTQTPLTLSVTIGQPASISCRSSQSLLHNYGNTYLHWYLQKPGQSPKLLIYKVSNRFSGVPDRFSGSGSGTDFTLKISRVEAEDLGVYFCSQGTHVPWTFGGGTKLEIK
notes: mouse
B13: 7C8 scFv (scFv)
scFv: LQLKQSGPGLVKPSQSLSLTCSVTGYSITSGYYWYWIRQFPGNKLEWMGYISYDGSNNYNPSLKNRISITRDTSKNQFFLKLNSVTTEDTATYYCARNLGLWYFDVWGTGTPLTVSSVDLKSGGSTSGSGKPGSGEGSSGSAREIVLTQSPAILSASPGEKVTMTCRASSSVRYMHWYQQKPGSSPKPWIYATSNLASGVPARFSGSGSGTSYSLTISRVEAEDAATYYCQQWSGNAPTFGGGTKLEIK
notes: mouse
B14: 10H10 scFv (scFv)
scFv: QVQLQQSGAELVRPGTSVKLSCKASGYTFTSYWMHWVKQRPGQGLEWIGVIDPSDSYTNYNQKFKGKATLTVDTSSSTAYMQLSSLTSEDSAVYYCARGGGRSSLDYWGQGTSVTVSSVDLKSGGSTSGSGKPGSGEGSSGSARDVVMTQTPASLAVSLGQRATISCKASQSVDYDGDSYMNWYQQKPGQPPKLLIYAASSLESGIPARFSGSGSGTDFTLNIHPVEEEDAATYYCQQSNEDPYTFGGGTKLEIK
notes: mouse
B15: 10C9 scFv (scFv)
scFv: QVQLQQSGAELVRPGTSVKLSCKASGYTFTSHWMHWVKQRPGQGLEWIGVIDPSDSYTNYNQKFKGKATLTVDTSSSTAYMQLSSLTSEDSAVYYCAIRRNYGMDYWGQGTSVTVSSVDLKSGGSTSGSGKPGSGEGSSGSARDIVMTQSPTSLAVSLGQRATISCKASQSVDYDGDSFMNWYQQKPGQPPKLLIYGASNLESGIPARFSGSGSRTDFTLTINPVEADDVATYYCQQSNEDPLTFGAGTKLELK
notes: mouse
B16: 10B4 scFv (scFv)
scFv: QVQLKESGPGLVKPSQTVSLTCTVTGYSITNGNHWWNWIRQVSGSKLEWIGYISSSGYTDINPSLKSRISITRDTSKNQLFLQLNSVTTEDIATYYCARDDGYYEALDYWGQGTSVTVSSVDLKSGGSTSGSGKPGSGEGSSGSARDIVMSQSPAIMSASPGEKVTLTCSASSSVSSNYLYWYQQKPGSSPKLWIYSTSNLASGVPARFSGSGSGTSYSLTISRVEAEDAATYYCQQWSSNPPTFGGGTKLEIK
notes: mouse

molecular target: BoNT/A2 holotoxin (FRI-H1A2) (Clostridium botulinum, UniProt Q45894 2-1296); assay: yeast scFv FACS
Sequence (Q45894 2-1296): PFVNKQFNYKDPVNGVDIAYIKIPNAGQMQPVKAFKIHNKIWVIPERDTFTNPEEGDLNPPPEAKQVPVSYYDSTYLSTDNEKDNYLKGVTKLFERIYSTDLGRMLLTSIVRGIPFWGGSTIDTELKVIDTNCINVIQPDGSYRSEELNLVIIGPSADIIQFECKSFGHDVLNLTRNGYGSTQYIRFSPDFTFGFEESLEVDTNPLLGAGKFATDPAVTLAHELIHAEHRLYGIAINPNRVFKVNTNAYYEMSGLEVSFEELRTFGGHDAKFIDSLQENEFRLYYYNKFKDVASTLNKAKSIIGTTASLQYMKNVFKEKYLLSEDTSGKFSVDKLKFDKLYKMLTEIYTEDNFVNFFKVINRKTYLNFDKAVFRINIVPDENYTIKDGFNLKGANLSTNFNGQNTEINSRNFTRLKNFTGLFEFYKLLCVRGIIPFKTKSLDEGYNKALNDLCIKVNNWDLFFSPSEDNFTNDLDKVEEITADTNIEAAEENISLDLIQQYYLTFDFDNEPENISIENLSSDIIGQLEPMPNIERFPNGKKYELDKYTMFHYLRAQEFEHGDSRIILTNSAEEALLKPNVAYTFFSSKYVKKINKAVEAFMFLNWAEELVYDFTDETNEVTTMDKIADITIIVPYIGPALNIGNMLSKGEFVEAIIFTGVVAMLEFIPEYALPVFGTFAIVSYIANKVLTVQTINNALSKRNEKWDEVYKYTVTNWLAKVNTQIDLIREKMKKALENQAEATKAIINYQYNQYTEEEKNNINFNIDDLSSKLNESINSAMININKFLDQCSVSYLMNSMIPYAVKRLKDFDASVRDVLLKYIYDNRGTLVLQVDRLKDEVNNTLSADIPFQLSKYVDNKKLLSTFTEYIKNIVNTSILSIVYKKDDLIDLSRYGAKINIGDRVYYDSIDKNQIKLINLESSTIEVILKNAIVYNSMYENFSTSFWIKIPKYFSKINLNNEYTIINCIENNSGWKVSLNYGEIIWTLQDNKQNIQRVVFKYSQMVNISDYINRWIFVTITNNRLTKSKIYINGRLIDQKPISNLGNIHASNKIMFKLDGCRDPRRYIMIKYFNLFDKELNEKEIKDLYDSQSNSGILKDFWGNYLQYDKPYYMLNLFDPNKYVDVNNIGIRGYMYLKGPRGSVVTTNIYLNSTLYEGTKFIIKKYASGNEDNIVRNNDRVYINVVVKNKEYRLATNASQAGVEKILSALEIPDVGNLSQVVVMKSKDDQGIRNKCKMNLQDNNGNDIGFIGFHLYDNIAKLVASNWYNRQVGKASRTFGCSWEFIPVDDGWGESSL

| Binder | Kd [nM] | binding result |
| --- | --- | --- |
| B1 | 0.12 | – |
| B2 | – | no binding |
| B3 | – | no binding |
| B4 | – | no binding |
| B5 | > 500 | – |
| B6 | – | no binding |
| B7 | – | no binding |
| B8 | – | no binding |
| B9 | 140 | – |
| B10 | 2.08 | – |
| B11 | – | no binding |
| B12 | 154 | – |
| B13 | 0.45 | – |
| B14 | – | no binding |
| B15 | 112 | – |
| B16 | 252 | – |

molecular target: BoNT/A1 holotoxin (Hall hyper) (Clostridium botulinum, UniProt P0DPI0 2-1296); assay: yeast scFv FACS

| Binder | Kd [nM] | binding result |
| --- | --- | --- |
| B1 | 0.11 | – |
| B2 | – | no binding |
| B3 | – | no binding |
| B4 | – | no binding |
| B5 | > 500 | – |
| B6 | – | no binding |
| B7 | – | no binding |
| B8 | – | no binding |
| B9 | – | no binding |
| B10 | 0.66 | – |
| B11 | – | no binding |
| B12 | 232 | – |
| B13 | 0.73 | – |
| B14 | – | no binding |
| B15 | > 500 | – |
| B16 | > 500 | – |

molecular target: BoNT/A light chain (recombinant) (Clostridium botulinum, UniProt P0DPI0 1-448); assay: yeast scFv FACS

| Binder | Kd [nM] |
| --- | --- |
| B1 | > 16.3 |
| B2 | 9.13 |
| B3 | 6.4 |
| B4 | 0.22 |
| B5 | 0.09 |
| B6 | 0.92 |
| B7 | 10.6 |
| B8 | 3.35 |
| B9 | 0.53 |
| B10 | 25.8 |
| B11 | 4.85 |
| B12 | 0.67 |
| B13 | 0.94 |
| B14 | 11.1 |
| B15 | 0.36 |
| B16 | 1.53 |
